Measured values taken from patent publication US20140024061.

Key:
SEQ ID NO: 13 peptide = target: T1, SEQ ID NO: 13 peptide
T1 chain: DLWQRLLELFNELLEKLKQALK

SEQ ID NO: 2 peptide = target: T2, SEQ ID NO: 2 peptide
T2 chain: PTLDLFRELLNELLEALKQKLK

SEQ ID NO: 4 peptide = target: T3, SEQ ID NO: 4 peptide
T3 chain: PVLDLFRELLNELLQKLKK

SEQ ID NO: 6 peptide = target: T4, SEQ ID NO: 6 peptide
T4 chain: PVLDLFRELLEELLQKLKK

SEQ ID NO: 14 peptide = target: T5, SEQ ID NO: 14 peptide
T5 chain: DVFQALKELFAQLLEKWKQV

SEQ ID NO: 12 peptide = target: T6, SEQ ID NO: 12 peptide
T6 chain: EVLKNLLEKLLEKLKELF

SEQ ID NO: 3 peptide = target: T7, SEQ ID NO: 3 peptide
T7 chain: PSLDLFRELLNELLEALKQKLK

SEQ ID NO: 5 peptide = target: T8, SEQ ID NO: 5 peptide
T8 chain: PTLDLFRELLNELLQKLKK

B1: recombinant human LCAT (lecithin:cholesterol acyltransferase) (protein)
chain: FWLLNVLFPPHTTPKAELSNHTRPVILVPGCLGNQLEAKLDKPDVVNWMCYRKTEDFFTIWLDLNMFLPLGVDCWIDNTRVVYNRSSGLVSNAPGVQIRVPGFGKTYSVEYLDSSKLAGYLHTLVQNLVNNGYVRDETVRAAPYDWRLEPGQQEEYYRKLAGLVEEMHAAYGKPVFLIGHSLGCLHLLYFLLRQPQAWKDRFIDGFISLGAPWGGSIKPMLVLASGDNQGIPIMSSIKLKEEQRITTTSPWMFPSRMAWPEDHVFISTPSFNYTGRDFQRFFADLHFEEGWYMWLQSRDLLAGLPAPGVEVYCLYGVGLPTPRTYIYDHGFPYTDPVGVLYEDGDDTVATRSTELCGLWQGRQPQPVHLLPLHGIQHLNMVFSNLTLEHINAILLGAYRQGPPASPTASPEPPPPE
SEQ ID NO: 13 peptide
  RELATIVE ACTIVITY (Percent activity relative to SEQ ID: 1); DHE esterification by rhLCAT with peptide mHDL substrate: 0%
SEQ ID NO: 2 peptide
  RELATIVE ACTIVITY (Percent activity relative to SEQ ID: 1); DHE esterification by rhLCAT with peptide mHDL substrate: 94%
SEQ ID NO: 4 peptide
  RELATIVE ACTIVITY (Percent activity relative to SEQ ID: 1); DHE esterification by rhLCAT with peptide mHDL substrate: 86%
SEQ ID NO: 6 peptide
  RELATIVE ACTIVITY (Percent activity relative to SEQ ID: 1); DHE esterification by rhLCAT with peptide mHDL substrate: 65%
SEQ ID NO: 14 peptide
  RELATIVE ACTIVITY (Percent activity relative to SEQ ID: 1); DHE esterification by rhLCAT with peptide mHDL substrate: 0%
SEQ ID NO: 12 peptide
  RELATIVE ACTIVITY (Percent activity relative to SEQ ID: 1); DHE esterification by rhLCAT with peptide mHDL substrate: 21%
SEQ ID NO: 3 peptide
  RELATIVE ACTIVITY (Percent activity relative to SEQ ID: 1); DHE esterification by rhLCAT with peptide mHDL substrate: 87%
SEQ ID NO: 5 peptide
  RELATIVE ACTIVITY (Percent activity relative to SEQ ID: 1); DHE esterification by rhLCAT with peptide mHDL substrate: 65%
